Paper PMC12240809 (2025)
Where two headings read alike, the source gives them in different places.

Experiments:
Test in all cases: MST
[1] = molecular target: T1, FoTO1 (facilitator of taxane oxidation), fused to N-terminal mTurquoise2 (Taxus media)
[2] = molecular target: T2, FoTO1(ΔC), FoTO1 with the C-terminal α-helix deleted, fused to N-terminal mTurquoise2 (Taxus media)
[3] = molecular target: T1, FoTO1 (facilitator of taxane …); remark: listed apart in the source
[4] = molecular target: T2, FoTO1(ΔC), FoTO1 with the C-terminal …; remark: listed apart in the source

Kd [1] [nM] | Kd [2] [nM] | Kd [3] [nM] | Kd [4] [nM] | Binder
610 | > 10000 | – | – | taxadiene synthase 2 (TDS2), soluble portion, 60 N-terminal amino acids removed (enzyme, RED-tris-NTA dye on the His tag (NanoTemper His-Tag labelling kit)) SGSPTKLATENANAVAESNLIPRLSANYHGDLWHHGVIQTLQTPYQESSSYQERAEELIVKIKDMFKAVEEGAISPSAYDTAWVARVPDGSEKPRFPQALNWLLHNQLQDGSWGLESHFMLSDRLLSTLNSVISLLVWKTGQQQVEQGTLFITENLKLLEGEDELPPDFEIIFPALLQKAKALGMSLPDHDLPFIKSLSVAREARLASYTDNNIPASMLNALEGLEEVIDWDKIMRFQMPCLYSIDLLERLSLVDNIEHLGIGRHFKQEIKVALDYVYRYWSERGIGLGRDSLIPDLNTTALGLRTLRAHGYNVSSEVLNNFKDENGRFFSSLGQTHVELRSMVNLLRASDLAFPDEPLMDDAKIFAEAYLRDALATRISTNTKLFKEIDYAVEYPWHMSIPRLEARSYIDVYDDDYTWQNKTLYRMSNLSNAYCLELAKLDFNIVQSLHQEELKLLTRWWKESGMADINFTRHRVAEVYFSSATFEPEYSSTRIAFTKIGCLQVLFDDMADIFATLDELRDFTEGVKRWDTSLIHKLPDCMQTCFRVWFNLMEEVNNDVSNVQGRDMLNHIRKPWELYFNCYVQEREWLDAGYIPTLEEYLKTYSISVGLGPCTLQPILLMGDIVKDDVVEKVHYPSNLFELVSLSWRLTNDTKTYQAEKARGQQASGIACYMKDNPGSTEEDAIKYICGVVDRALKEACFEYFKPADDVPMSCKSFIFNLRLCVQIFYKFIDGYGIANEEIKDYIRKVYIEPIQV
– | – | 470 | > 10000 | taxadiene 5α-hydroxylase (T5αH), soluble portion, 47 N-terminal amino acids removed (enzyme, RED-tris-NTA dye on the His tag (NanoTemper His-Tag labelling kit)) SSLKLPPGKLGIPFIGESFIFLRALRSNSLEQFFDERVKKFGLVFKTSLIGHPTVVLCGPAGNRLILSNEEKLVQMSWPAQFMKLMGENSVATRRGEDHIVMRSALAGFFGPGALQSYIGKMNTEIQSHINEKWKGKDEVNVLPLVRELVFNISAILFFNIYDKQEQDRLHKLLETILVGSFALPIDLPGFGFHRALQGRAKLNKIMLSLIKKRKEDLQSGSATATQDLLSVLLTFRDDKGTPLTNDEILDNFSSLLHASYDTTTSPMALIFKLLSSNPECYQKVVQEQLEILSNKEEGEEITWKDLKAMKYTWQVAQETLRMFPPVFGTFRKAITDIQYDGYTIPKGWKLLWTTYSTHPKDLYFNEPEKFMPSRFDQEGKHVAPYTFLPFGGGQRSCVGWEFSKMEILLFVHHFVKTFSSYTPVDPDEKISGDPLPPLPSKGFSIKLFPRP
